Data set [1] deals with TnsA(A125D)BC + TniQ-Cascade transposition system (Aeromonas salmonicida). Kind of data set: cell_activity. Particulars: native array, native A.s. target on F plasmid; transposition in E. coli, mate-out; TACC PAM.
The subject of data set [2] is TnsA(wt)BC + TniQ-Cascade transposition system (Aeromonas salmonicida). Kind of data set: cell_activity. Particulars: wild-type TnsA; native array and native target; no detectable transposition.

As to “AGGACUGGAAGAAAUCAUCCAAGUUGGGGACU / TCAGGACCGGAAGGTAGCAGCCAAGGCGGGGGACTCGAGTGCCGGGATGTGGCTGATGGGGCCACCAC / GTGGTGGCCCCATCAGCCACATCCCGGCACTCGAGTCCCCCGCCTTGGCTGCTACCTTCCGGTCCTGA [ffs wild-type guide (10 mismatches) ; ffs target]”, the activity in data set [1] was 0.0188%; in data set [2] it was 0%.
